What was measured:
[1] = biological target: transcription intermediary factor-2 (TIF2), full length (human, UniProt Q15596 1-1464); experiment: cell-based or functional assay
GAL/STAMP(N834) = biological target: T1, GAL/STAMP(N834) (human); experiment: mammalian two-hybrid ±1 µM Dex (FIG. 6B)
T1 construct: domain: GAL-DBD; Mammalian two-hybrid construct; also called GAL/N834

GAL/STAMP(623-834) = biological target: T2, GAL/STAMP(623-834) (human); experiment: mammalian two-hybrid in CV-1 cells
T2 construct: domain: GAL-DBD; Expressed in CV-1 cells for the mammalian two-hybrid assay; also called Gal/6-6CL1

[2] = biological target: T3, STAMP C-terminal fragment (834C), in vitro translated (human, UniProt Q6EMB2 838-1281, [35S]methionine labeled); experiment: GST pulldown, autoradiography (FIG. 7A)
T3 sequence: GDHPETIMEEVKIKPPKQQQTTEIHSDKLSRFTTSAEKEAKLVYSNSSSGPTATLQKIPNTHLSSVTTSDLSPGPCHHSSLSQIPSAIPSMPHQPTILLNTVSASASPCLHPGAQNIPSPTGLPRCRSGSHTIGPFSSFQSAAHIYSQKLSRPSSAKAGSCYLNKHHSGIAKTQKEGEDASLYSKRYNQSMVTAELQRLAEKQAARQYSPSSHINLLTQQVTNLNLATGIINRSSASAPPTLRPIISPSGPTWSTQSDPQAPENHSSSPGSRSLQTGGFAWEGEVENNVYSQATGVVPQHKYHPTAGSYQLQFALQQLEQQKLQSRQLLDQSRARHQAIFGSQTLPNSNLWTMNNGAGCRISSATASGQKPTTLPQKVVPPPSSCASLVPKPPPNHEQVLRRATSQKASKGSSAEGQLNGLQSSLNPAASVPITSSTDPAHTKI
Experimental: (§1) The mixture was centrifuged (12,000×g), the supernatant was discarded, and the pellet was washed with phosphate-buffered saline (3×1 ml). Each 20-μl sample of immobilized GST or GST-chimera was then incubated overnight with 10 μl of ³⁵S-labeled in vitro translation product. The matrix was washed with phosphate-buffered saline (4×1 ml). The immobilized proteins were removed from the beads by heating at 90° C. for 5 min in 20 μl of 2×SDS loading buffer. The proteins were separated on 8-10% SDS-PAGE gels and detected by radio-autoradiography.

[3] = biological target: T4, STAMP amino terminal fragment (N623), in vitro translated (human, UniProt Q6EMB2 5-627, [35S]methionine labeled); experiment: GST pulldown, autoradiography (FIG. 7A)
T4 sequence: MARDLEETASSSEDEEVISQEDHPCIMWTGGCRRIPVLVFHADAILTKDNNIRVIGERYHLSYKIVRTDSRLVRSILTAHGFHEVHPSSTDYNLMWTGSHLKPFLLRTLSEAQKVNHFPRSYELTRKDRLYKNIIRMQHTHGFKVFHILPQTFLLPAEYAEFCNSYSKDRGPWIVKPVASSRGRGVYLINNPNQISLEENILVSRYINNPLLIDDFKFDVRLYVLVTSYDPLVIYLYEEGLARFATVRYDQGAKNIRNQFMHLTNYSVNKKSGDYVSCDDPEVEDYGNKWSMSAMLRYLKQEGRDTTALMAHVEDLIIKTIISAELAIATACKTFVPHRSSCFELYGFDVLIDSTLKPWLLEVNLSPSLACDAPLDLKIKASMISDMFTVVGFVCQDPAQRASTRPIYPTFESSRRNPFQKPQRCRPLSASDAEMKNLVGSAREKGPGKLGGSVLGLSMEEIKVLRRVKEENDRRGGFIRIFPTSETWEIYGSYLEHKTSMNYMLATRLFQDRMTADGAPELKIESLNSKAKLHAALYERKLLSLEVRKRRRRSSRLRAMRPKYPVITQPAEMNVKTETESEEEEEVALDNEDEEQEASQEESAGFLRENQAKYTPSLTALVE
Experimental: as §1

GAL/STAMP(834C) = biological target: T5, GAL/STAMP(834C) (human, UniProt P04386 1-147 (Saccharomyces cerevisiae entry)); experiment: mammalian two-hybrid (data not shown)
T5 construct: domain: GAL-DBD; Mammalian two-hybrid construct; also called GAL fused to STAMP834C

B1: full length STAMP (SRC-1 and TIF2 Associated Modulatory Protein) (other)
chain: MARDLEETASSSEDEEVISQEDHPCIMWTGGCRRIPVLVFHADAILTKDNNIRVIGERYHLSYKIVRTDSRLVRSILTAHGFHEVHPSSTDYNLMWTGSHLKPFLLRTLSEAQKVNHFPRSYELTRKDRLYKNIIRMQHTHGFKVFHILPQTFLLPAEYAEFCNSYSKDRGPWIVKPVASSRGRGVYLINNPNQISLEENILVSRYINNPLLIDDFKFDVRLYVLVTSYDPLVIYLYEEGLARFATVRYDQGAKNIRNQFMHLTNYSVNKKSGDYVSCDDPEVEDYGNKWSMSAMLRYLKQEGRDTTALMAHVEDLIIKTIISAELAIATACKTFVPHRSSCFELYGFDVLIDSTLKPWLLEVNLSPSLACDAPLDLKIKASMISDMFTVVGFVCQDPAQRASTRPIYPTFESSRRNPFQKPQRCRPLSASDAEMKNLVGSAREKGPGKLGGSVLGLSMEEIKVLRRVKEENDRRGGFIRIFPTSETWEIYGSYLEHKTSMNYMLATRLFQDRMTADGAPELKIESLNSKAKLHAALYERKLLSLEVRKRRRRSSRLRAMRPKYPVITQPAEMNVKTETESEEEEEVALDNEDEEQEASQEESAGFLRENQAKYTPSLTALVENTPKENSMKVREWNNKGGHCCKLETQELEPKFNLMQILQDNGNLSKMQARIAFSAYLQHVQIRLMKDSGGQTFSASWAAKEDEQMELVVRFLKRASNNLQHSLRMVLPSRRLALLERRRILAHQLGDFIIVYNKETEQMAEKKSKKKVEEEEEDGVNMENFQEFIRQASEAELEEVLTFYTQKNKSASVFLGTHSKISKNNNNYSDSGAKGDHPETIMEEVKIKPPKQQQTTEIHSDKLSRFTTSAEKEAKLVYSNSSSGPTATLQKIPNTHLSSVTTSDLSPGPCHHSSLSQIPSAIPSMPHQPTILLNTVSASASPCLHPGAQNIPSPTGLPRCRSGSHTIGPFSSFQSAAHIYSQKLSRPSSAKAGSCYLNKHHSGIAKTQKEGEDASLYSKRYNQSMVTAELQRLAEKQAARQYSPSSHINLLTQQVTNLNLATGIINRSSASAPPTLRPIISPSGPTWSTQSDPQAPENHSSSPGSRSLQTGGFAWEGEVENNVYSQATGVVPQHKYHPTAGSYQLQFALQQLEQQKLQSRQLLDQSRARHQAIFGSQTLPNSNLWTMNNGAGCRISSATASGQKPTTLPQKVVPPPSSCASLVPKPPPNHEQVLRRATSQKASKGSSAEGQLNGLQSSLNPAASVPITSSTDPAHTKI
[1]
  fold repression by Dex of the PMA-induced AP-1/Luc reporter in U2OS.rGR cells (STAMP added, no TIF2 added): 16 fold
  fold repression by Dex of the PMA-induced AP-1/Luc reporter in U2OS.rGR cells (STAMP plus TIF2 added): ~31 fold

B2: VP16/GR (receptor)
chain: MDSKESLAPPGRDEVPGSLLGQGRGSVMDFYKSLRGGATVKVSASSPSVAAASQADSKQQRILLDFSKGSTSNVQQRQQQQQQQQQQQQQQQQQQQPDLSKAVSLSMGLYMGETETKVMGNDLGYPQQGQLGLSSGETDFRLLEESIANLNRSTSVPENPKSSTSATGCATPTEKEFPKTHSDASSEQQNRKSQTGTNGGSVKLYPTDQSTFDLLKDLEFSAGSPSKDTNESPWRSDLLIDENLLSPLAGEDDPFLLEGNTNEDCKPLILPDTKPKIKDTGDTILSSPSSVALPQVKTEKDDFIELCTPGVIKQEKLGPVYCQASFSGTNIIGNKMSAISVHGVSTSGGQMYHYDMNTASLSQQQDQKPVFNVIPPIPVGSENWNRCQGSGEDSLTSLGALNFPGRSVFSNGYSSPGMRPDVSSPPSSSSAATGPPPKLCLVCSDEASGCHYGVLTCGSCKVFFKRAVEGQHNYLCAGRNDCIIDKIRRKNCPACRYRKCLQAGMNLEARKTKKKIKGIQQATAGVSQDTSENPNKTIVPAALPQLTPTLVSLLEVIEPEVLYAGYDSSVPDSAWRIMTTLNMLGGRQVIAAVKWAKAILGLRNLHLDDQMTLLQYSWMFLMAFALGWRSYRQSSGNLLCFAPDLIINEQRMSLPCMYDQCKHMLFVSSELQRLQVSYEEYLCMKTLLLLSSVPKEGLKSQELFDEIRMTYIKELGKAIVKREGNSSQNWQRFYQLTKLLDSMHEVVENLLTYCFQTFLDKTMSIEFPEMLAEIITNQIPKYSNGNIKKLLFHQK
notes: Assayed with and without 1 µM Dex
GAL/STAMP(N834)
  binding result: no binding

B3: VP16/TIF2(1140C) (other)
chain: QAQMAQGSYSPMQDPNFHTMGQRPSYATLRMQPRPGLRPTGLVQNQPNQLRLQLQHRLQAQQNRQPLMNQISNVSNVNLTLRPGVPTQAPINAQMLAQRQREILNQHLRQRQMHQQQQVQQRTLMMRGQGLNMTPSMVAPSGMPATMSNPRIPQANAQQFPFPPNYGISQQPDPGFTGATTPQSPLMSPRMAHTQSPMMQQSQANPAYQAPSDINGWAQGNMGGNSMFSQQSPPHFGQQANTSMYSNNMNINVSMATNTGGMSSMNQMTGQISMTSVTSVPTSGLSSMGPEQVNDPALRGGNLFPNQLPGMDMIKQEGDTTRKYC
GAL/STAMP(623-834)
  binding result: no binding

B4: GST/TIF2.4 (other)
chain: ERADGQSRLHDSKGQTKLLQLLTTKSDQMEPSPLASSLSDTNKDSTGSLPGSGSTHGTSLKEKHKILHRLLQDSSSPVDLAKLTAEATGKDLSQESSSTAPGSEVTIKQEPVSPKKKENALLRYLLDKDDTKDIGLPEITPKLERLDSKTDPASNTKLIAMKTEKEEMSFEPGDQPGSELDNLEEILDDLQNSQLPQLFPDTRPGAPAGSVDKQAIINDLMQLTAENSPVTPVGAQKTALRISQSTFNNPRPGQLGRLLPNQNLPLDITLQSPTGAGPFPPIRNSSPYSVIPQPGMMGNQGMIGNQGNLGNSSTGMIGNSASRPTMPSGEWAPQSSAVRVTCAATTSAMNRPVQGGMIRNPAASIPMRPSSQPGQRQTLQSQVMNIG
notes: Bacterially expressed, immobilized on glutathione-Sepharose beads; The text gives no limits for TIF2.4, so the whole TIF2 entry is named; not shown: glutathione S-transferase (GST) of a pGEX plasmid
[2]
  binding result: no binding
[3]
  binding result: no binding

B5: GR C-terminal half (407C) (receptor, UniProt P06536 407-795, looked up, not shown: large carriers)
chain: SVFSNGYSSPGMRPDVSSPPSSSSAATGPPPKLCLVCSDEASGCHYGVLTCGSCKVFFKRAVEGQHNYLCAGRNDCIIDKIRRKNCPACRYRKCLQAGMNLEARKTKKKIKGIQQATAGVSQDTSENPNKTIVPAALPQLTPTLVSLLEVIEPEVLYAGYDSSVPDSAWRIMTTLNMLGGRQVIAAVKWAKAILGLRNLHLDDQMTLLQYSWMFLMAFALGWRSYRQSSGNLLCFAPDLIINEQRMSLPCMYDQCKHMLFVSSELQRLQVSYEEYLCMKTLLLLSSVPKEGLKSQELFDEIRMTYIKELGKAIVKREGNSSQNWQRFYQLTKLLDSMHEVVENLLTYCFQTFLDKTMSIEFPEMLAEIITNQIPKYSNGNIKKLLFHQK
notes: also called GR407C
GAL/STAMP(834C)
  binding result: no binding

B6: GR N-terminal half (N523) (receptor, UniProt P06536 1-523, looked up, not shown: large carriers)
chain: MDSKESLAPPGRDEVPGSLLGQGRGSVMDFYKSLRGGATVKVSASSPSVAAASQADSKQQRILLDFSKGSTSNVQQRQQQQQQQQQQQQQQQQQQQPDLSKAVSLSMGLYMGETETKVMGNDLGYPQQGQLGLSSGETDFRLLEESIANLNRSTSVPENPKSSTSATGCATPTEKEFPKTHSDASSEQQNRKSQTGTNGGSVKLYPTDQSTFDLLKDLEFSAGSPSKDTNESPWRSDLLIDENLLSPLAGEDDPFLLEGNTNEDCKPLILPDTKPKIKDTGDTILSSPSSVALPQVKTEKDDFIELCTPGVIKQEKLGPVYCQASFSGTNIIGNKMSAISVHGVSTSGGQMYHYDMNTASLSQQQDQKPVFNVIPPIPVGSENWNRCQGSGEDSLTSLGALNFPGRSVFSNGYSSPGMRPDVSSPPSSSSAATGPPPKLCLVCSDEASGCHYGVLTCGSCKVFFKRAVEGQHNYLCAGRNDCIIDKIRRKNCPACRYRKCLQAGMNLEARKTKKKIKGIQQAT
notes: domain: N-terminal half (N523)
GAL/STAMP(834C)
  binding result: no binding

Reference: patent US20070128627A1 (US Dept. of Health and Human Services, published 2007)
